Experiments:
Details in all cases: both partners purified
recombinant human PD-L1 [1] = molecular target: T1, recombinant human PD-L1 (Homo sapiens, UniProt Q9NZQ7); assay: SPR; JS003 captured on biosensor; association with recombinant human PD-L1 at pH 7.4; dissociation followed at pH 5.5 (compared with pH 7.4)
T1 construct: PD-L1, human; the methods are probably in the supplementary material; In the internalization assay hPD-L1 was expressed on CHO-K1 cells; also called hPD-L1

recombinant human PD-L1 [2] = molecular target: T1, recombinant human PD-L1; assay: SPR; JS003 captured on biosensor; association with recombinant human PD-L1 at pH 7.4; dissociation followed at pH 6.0 (compared with pH 7.4)
recombinant human PD-L1 [3] = molecular target: T1, recombinant human PD-L1; assay: SPR; JS003 immobilized on the chip; serial dilutions of PD-L1 from 0.75 nM to 24 nM flowed through

T1 sequence (Q9NZQ7 19-290): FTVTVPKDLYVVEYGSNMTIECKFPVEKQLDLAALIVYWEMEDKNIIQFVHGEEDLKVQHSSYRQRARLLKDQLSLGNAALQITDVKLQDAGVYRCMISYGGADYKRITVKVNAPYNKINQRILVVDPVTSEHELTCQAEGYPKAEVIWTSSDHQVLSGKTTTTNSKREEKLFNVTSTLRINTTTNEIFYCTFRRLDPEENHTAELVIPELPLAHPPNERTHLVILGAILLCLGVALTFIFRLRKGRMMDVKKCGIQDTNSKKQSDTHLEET

B1: JS003 (antibody, V domains shown)
VH: QGQLQESGPSLVKPSQTLSLTCTVSGDSITRGYWNWIRKHPGKGLEYIGYISYTGSTYSNLSLKSRVTISRDTSKNQYYLKLSSVTAADTAVYYCATSTGWLDPVDYWGQGTLVTVSS
VL: DIVMTQSPDSLAVSLGERATINCKASQNVDTSVAWFQQKPGQPPKALIYSASFRYSGVPDRFSGSGSGTDFTLTISSLQAEDVAVYFCQQYYGYPFTFGQGTKLEIK
notes: humanized PD-L1 specific mAb; Fab part as the heavy chain of m2; as the light chain of m2; Whole humanized mAb; Labelled with CypHer5E in the internalization assay only; also called JS003 antibodies
Recombinant human PD-L1 [1]
  fold faster dissociation rate at pH 5.5 than at pH 7.4: 8.7 fold
Recombinant human PD-L1 [2]
  fold faster dissociation rate at pH 6.0 than at pH 7.4: 3.4 fold
Recombinant human PD-L1 [3]
  Kd: 0.288 nM
